In patent US7576177B2, “Hsp peptides and analogs for modulation of immune responses via antigen presenting cells” (Andromeda Biotech Ltd., priority 2002, dated 2009):

Key:
[1] = system: BALB/c DO.11.10 bone marrow cells cultured for dendritic cells, cocultured with DO.11.10 T cells; experiment: Education of mouse dendritic cells and stimulation of T-cells, cytokine content of supernatant; type: cell-based; conditions: 0.3 nM Ova peptide
Method: Whelan et al. (J. Immunol 164, 6453-6460, 2000) addressed the problem in mice by an experiment in which mouse bone marrow cells were grown for 6 days in culture with GM-CSF to give immature dendritic cells. These dendritic cells were then incubated overnight with LPS (known to drive cells to DC1) or with a nematode antigen. The reason for the choice of nematode antigen was that injection of this antigen in vivo gives rise to a Th2 response in animals. After this so-called “education” of the dendritic cells, they were washed and subsequently incubated with naive T cells in the presence of antigenic stimulus. The experiment was possible because of the use of transgenic mice in which all the T cells respond to the same peptide (OVA323-339) which absolves the system from any question of bias of the T cell response at the level of the T cells. Any bias should be a consequence of the “education” of the dendritic cells. After three days of incubation the cytokine responses produced by the T cells, were measured by ELISA. […] In contrast, nematode antigen incubation gave rise to more IL-4 (Th2) than did controls while the LPS incubation inhibited the IL4 response. Therefore, the nematode antigen was said to drive cells to DC2. A similar method was used for testing the compounds of the present invention: • 1. Bone marrow cells were extracted from the leg bones of DO.11.10 mice transgenic for the TcR. All cells from these mice respond to the OVA peptide ([…]). • 2. Bone marrow cells were plated at 10^6 cells/ml in 100 mm diameter tissue culture petri dishes in Iscove's medium supplemented with 10% FCS, […], 1 mM sodium pyruvate, penicillin/streptomycin (according to manufacturer's recommendations), non-essential amino acids, 50 μM β-mercaptoethanol and 10 ng/ml mGM-CSF. • 3. After 4 days, the medium was carefully removed and replaced with fresh medium • 4. After 6 days, the non-adherent cells were harvested and used as immature dendritic cells • 5. The immature dendritic cells are plated at 1×10^6 cells/ml, 1 ml/well in 24 well plates in the above medium with various reagents added at various concentrations and incubated overnight. This is the stage in which the dendritic cells are “educated” • 6. The next day the cells were harvested and washed 3 times then resuspended at 5×10^4 cells/ml in 1 ml of the above medium but without the addition of GM-CSF to be cocultured with T cells • 7. […] 5×10^5 T cells were cultured with the dendritic cells from step 6 in the presence of various concentrations of the OVA peptide (0, 0.3 nM, 3 nM and 30 nM). • 9. After 3 days PMA (50 ng/ml) and ionomycin (500 ng/ml) were added to further stimulate the cells. • 10. The next day the cell supernatants were collected and assayed for cytokine content (Interferon γ, IL4, IL-10 and IL-12).
The compound was tested for stimulation of DO.11.10 bone marrow cells according to the assay described above (Production and education of mouse dendritic cells and stimulation of T-cells).
BALB/c DO.11.10 bone marrow cells were cultured for dendritic cells and then stimulated with LPS 1 μg/ml, LPS 10 μg/ml, hsp60 3 μg/ml, hsp60 10 μg/ml, p277 5 μg/ml and p277 50 μg/ml. The cells were then transferred to wells with T cells from fresh BALB/c DO.11.10 mice and stimulated with OVA peptide at different concentrations (0, 0.3 nM, 3 nM, 30 nM). Supernatant was collected after 48 hours for assay. 30 μl was taken for IFN, 40 μl for IL4 and IL-10 and 50 μl for IL-12 assays. The results are presented in the following tables, as amount of cytokine (pg/ml), and in FIG. 1.

[2] = system: peripheral blood mononuclear cells cultured with GM-CSF and IL4 (dendritic cells); experiment: Peripheral blood derived dendritic cells: secreted cytokines (IP-10, IL-8) and cell surface antigens (CD83, CD86); type: cell-based, human; conditions: overnight
Method: The effect of the compositions of the present invention on peripheral blood derived dendritic cells, was tested according to a protocol described by Re, F. and Strominger, J. L. 2001. Toll-like receptor 2 (Tlr2) and Tlr4 differentially activate human dendritic cells. (J Biol Chem 276: 37692-9). According to this method immature dendritic cells derived from human peripheral blood are used. The outcome after incubating the cells with tested molecules is different if the stimulation is through the Toll 4 receptor or the Toll 2 receptor. According to the authors, Toll 2 signaling by stimulation with zymosan is associated with a Th2 kind of response (exemplified by IL-8) and Toll 4 signaling, such as obtained by LPS stimulation (exemplified by IP-10), with a Th1 type of response. The compositions of the present invention were tested using a similar assay system in order to check which stimulation type they induce. […] The increase in CD86 expression after exposure of APCs to Hsps or Hsp derived peptides is important since CD86 (B7.2) is an essential component of the immunological synapse formed between T cells and APC. This synapse consists of CD80 and CD86 on the side of the APC and CD28 and CD40 on the side of the T cell. T cell recognition of peptide on APC without the concurrent expression of CD86 gives rise to anergy instead of a T cell response. Therefore in order to produce a response all components must be present.
The assay was based on the protocol described by Re, F. and Strominger, J. L. 2001. Toll-like receptor 2 (Tlr2) and Tlr4 differentially activate human dendritic cells. (J. Biol Chem 276: 37692-9).
Peripheral blood mononuclear cells were prepared from leucocytes from blood lots obtained from the blood bank. The cells were plated at 10^8 cells/10 ml/Petri dish in RPMI medium including 10% FCS and allowed to adhere at 37° C. for 2 hours. At the end of this time, the non-adherent cells were washed off the plates with PBS and the adherent cells resuspended in fresh medium as before. […]

[3] = system: peripheral blood monocytes; experiment: Peripheral blood monocytes: IP-10 after direct stimulation or preincubation then LPS; type: cell-based, human; conditions: peripheral blood monocytes, no preincubation, FIG. 4
Method: Peripheral blood mononuclear cells were prepared from leucocytes of blood lots obtained from the blood bank. The cells were plated at a concentration of 4×10^6 cell/ml/well in 24 well tissue culture dishes in medium containing 10% fetal calf serum. The cells were allowed to adhere for 2 hours at 37° C. After this time, non-adherent cells were washed away and the adherent cells incubated in fresh medium containing 10% human AB serum for 6-8 days, changing the medium after 4 days. These culture conditions were reported to give rise to monocytes.
For stimulation the medium was replaced with medium without serum. For preincubation, the cells were exposed overnight to the tested compounds at various concentrations and then LPS was added. The supernatant was collected after a further overnight incubation and tested for various cytokines by ELISA assays.

[4] = dendritic cells educated with 3 μg/ml
[5] = dendritic cells educated with 10 μg/ml

B1: hsp60: heat shock protein 60, mitochondrial chaperone, used as stimulus (protein)
chain: MLRLPTVFRQMRPVSRVLAPHLTRAYAKDVKFGADARALMLQGVDLLADAVAVTMGPKGRTVIIEQGWGSPKVTKDGVTVAKSIDLKDKYKNIGAKLVQDVANNTNEEAGDGTTTATVLARSIAKEGFEKISKGANPVEIRRGVMLAVDAVIAELKKQSKPVTTPEEIAQVATISANGDKEIGNIISDAMKKVGRKGVITVKDGKTLNDELEIIEGMKFDRGYISPYFINTSKGQKCEFQDAYVLLSEKKISSIQSIVPALEIANAHRKPLVIIAEDVDGEALSTLVLNRLKVGLQVVAVKAPGFGDNRKNQLKDMAIATGGAVFGEEGLTLNLEDVQPHDLGKVGEVIVTKDDAMLLKGKGDKAQIEKRIQEIIEQLDVTTSEYEKEKLNERLAKLSDGVAVLKVGGTSDVEVNEKKDRVTDALNATRAAVEEGIVLGGGCALLRCIPALDSLTPANEDQKIGIEIIKRTLKIPAMTIAKNAGVEGSLIVEKIMQSSSEVGYDAMAGDFVNMVEKGIIDPTKVVRTALLDAAGVASLLTTAEVVVTEIPKEEKDPGMGAMGGMGGGMGGGMF
modifications: Homo sapien
notes: heat shock protein 60, mitochondrial chaperone, used as stimulus
[1]; [4]
  IFN secretion of T cells: 447.78 pg/mL
  IL-4 secretion of T cells: 35.96 pg/mL
  IL-10 secretion of T cells: 34.50 pg/mL
  IL-12 secretion of T cells: 95.00 pg/mL
[1]; [5]
  IFN secretion of T cells: 480.56 pg/mL
  IL-4 secretion of T cells: 24.29 pg/mL
  IL-10 secretion of T cells: 80.18 pg/mL
  IL-12 secretion of T cells: 126.25 pg/mL
[2]; stimulus 10 ng/ml
  IP-10: 6 pg/mL
[2]; stimulus 0.1 μg/ml
  IP-10: 1 pg/mL
[2]; stimulus 1 μg/ml
  IP-10: 31 pg/mL
[3]
  IP-10 after direct stimulation: did not give rise to IP-10
